# Experiments:
# integrin αvβ3 = experiment: Flow cytometry, scFv binding to human tumor cell panel
# Description: FIGS. 1A, 1B, 1C. Patient derived scFvs Bc-12 and Bc-15 recognize tumor cell integrin αvβ3 in a cation and activation dependent manner. Flow cytometric analyses in TBS with or without 1 mM Ca^2+, 1 mM Mg^2+, or 0.2 mM Mn^2+ as indicated. Binding of soluble scFv detected after incubation with anti-Flag M2 murine mAb followed by FITC-anti mouse F(ab′)2. (A) scFv binding to human melanoma cells (M21: αvβ3 plus other αv integrins) (M21-LIIb: αIIbβ3, no αv integrins) or lung adenocarcinoma cells (UCLA-P3: αv integrins, no β3 integrin). (B) scFv binding to M21 melanoma cells. (C) scFv binding to variants of MDA-MB 435 human breast cancer cells that lack (β^3−) or express αvβ3 either in a non-activated (β3WT, ParentCo) or activated form (β3D723R, Bone, Lung, and BMS metastatic cancer cells isolated from breast cancer patient blood).
# Flow cytometry. scFv binding to human tumor cells was analyzed by flow cytometry, initially with cloned scFv phage and then with purified scFv protein. Per sample, 2×10^5 tumor cells were blocked with goat serum and incubated either with scFv phage (2-5×10^10) (1 h at RT) followed by mouse anti-M13 mAb (Serotec) (30 min on ice) and goat FITC-anti mouse (Pierce) (30 min on ice), or with purified scFv (1.25 to 40 μg/ml, routinely 10 to 15 μg/ml) (45 min on ice), followed by mouse anti-FLAG mAb M2 (Sigma) (30 min on ice) and goat FITC-anti mouse. Binding/washing buffer was TBS with or without divalent cations (1 mM Ca^2+, 1 mM Mg^2+, 0.2 mM Mn^2+). Alternatively, tumor cells were washed in 10 ml of plasma (prepared freshly from human blood anticoagulated with 50 nM D-Phe-D-Pro-D-arginyl chloromethyl ketone, PPACK, Felding-Habermann et al., J. Biol. Chem. 271: 5892-5900, 1996), resuspended in plasma and then incubated sequentially, without washing, with purified scFv (45 min on ice), followed by anti-FLAG M2 (30 min on ice) and FITC-anti mouse (30 min on ice). All samples were counter stained with propidium iodide (PI) and analyzed on a Becton-Dickinson FACScan, with live gate set to exclude PI positive cells.
# To generate therapeutic reagents that specifically react with activated αvβ3, a phage display library of single chain antibody fragments (scFv) was exploited. This library was derived from cancer patient blood lymphocyte cDNA libraries and allowed us to test the hypothesis that the expressed immune repertoire contains antibodies that recognize integrin αvβ3, and distinguish between its activated and non-activated forms. Mao et al., Proc. Natl. Acad. Sci. U.S.A 96: 6953-6958, 1999. A subtractive panning approach was designed based on variants of MDA-MB 435 human breast cancer cells. […] Apparently, these cells are selected during metastasis, as variant cells isolated from lung and bone metastases in immune deficient mice express constitutively activated αvβ3. To establish a cell population that uniformly expresses non-activated αvβ3, MDA-MB 435 parental cells were cloned by limiting dilution, and clones tested for αvβ3 functionality. […] A cell line, MDA-MB 435 Lung-Lung, was established which expressed αvβ3 in a constitutively activated form. This variant stems from a lung metastase of an immune deficient mouse whose mammary fat pad had been injected with parental MDA-MB 435 cells. Felding-Habermann et al., Proc. Natl. Acad. Sci. U.S.A 98: 1853-1858, 2001; Rolli et al., Proc. Natl. Acad. Sci. U.S.A 100: 9482-9487, 2003. To enrich for the ability to colonize the lung from the blood stream, the Lung variant was subsequently injected intravenously, and tumor cells cultured 3 weeks later from the excised lung. Parent Combo cells were used to subtract the scFv phage library to eliminate antibodies against antigens shared by the MDA-MB 435 cell variants. […]
# [1] = test system: Integrin αIIβ3 mediated adhesive platelet functions; experiment: Platelet adhesion and thrombus formation during blood perfusion; format: cell-based, human; conditions: 3 μM scFv
# Description: Tumor cell arrest during bloodflow. Breast cancer cell arrest during blood flow and interaction with platelets was measured as described. Felding-Habermann, et al., Proc. Natl. Acad. Sci. U.S.A 98: 1853-1858, 2001. Felding-Habermann et al., J. Biol. Chem. 271: 5892-5900, 1996. Briefly, tumor cells were suspended in human blood anticoagulated with 50 nM PPACK and perfused over a collagen I matrix at a venous wall shear rate of 50 s^−1, 2 dynes/cm^2. Adhesive events and cell interactions were visualized and recorded by fluorescence video microscopy and quantified by image acquisition at 30 predefined positions followed by computerized image analysis (MetaMorph, Universal Imaging). Tumor cells were stained with hydroethidine (red fluorescence) (20 μg/ml, 30 min, 37° C.), washed, and mixed with blood containing 10 μM mepacrine (green fluorescence). Blood cells, tumor cells, and platelets acquired green fluorescence and were visualized at 488/515 nm (excitation/emission). Tumor cells were identified by their unique red fluorescence at 543/590 nm. To test inhibition, tumor cells were incubated with 3 μM scFv for 5 min at 37° C., then mixed into blood, scFv added to 3 μM final concentration and perfused immediately.
# In the circulation, metastatic tumor cells are intensely exposed to a cancer patient's immune surveillance, encountering potential function blocking antibodies like Bc-12 and Bc-15. […]
molecule,measurement,setting,value
Bc-12: patient derived human scFv antibody against activated αvβ3 with RGD motif in CDR-H3; cDNA ATCC PTA-6303 (protein) scFv: MAQVQLVQSGAEVKKPGASVKVSCKASGYTFSNYGITWVRQAPGQGLEWMGWINNGNTHYAQKFQGRVTMTTDTSTSTAYMELRSLRSDDTAVYYCARDPRGDDEPYWGQGTLVTVSSGGGGSGGGGSGGGGSEIVLTQSPLSLPVTLGQPASISCRSSQNLVYSDGNTYLSWFQQRPGQSPRRLIYKVSNRDSGVPDRFSGSGSGTDFTLKISRVEAEDIGVYYCMQGTHWPPRTFGQGTKVEIKRGLGGLVDYKDDDDK,binding in the presence of Mn2+,integrin αvβ3; 0.2 mM Mn^2+,greatly enhanced
same,binding in the presence of Mg2+,"integrin αvβ3; 1 mM Mg^2+, M21 cells",at the same level as Ca^2+
same,effect of Ca2+ on Mn2+ enhanced binding,"integrin αvβ3; Ca^2+ combined with Mn^2+, M21 cells",reduced the enhancing effect of Mn^2+
same,reactivity with human tumor cells that express or lack αvβ3,"integrin αvβ3; M21, M21-LIIb, UCLA-P3 cells, flow cytometry",reacted only with cells expressing the αvβ3 heterodimer
same,binding to M21-L cells,integrin αvβ3; M21-L cells (no αv integrins),failed to bind
same,cation requirement of binding,integrin αvβ3; TBS with or without divalent cations,showed a cation dependence
same,binding in the presence of Ca2+,integrin αvβ3; physiological Ca^2+ levels (1 mM),measurable
same,reactivity with M21-L4 cells,integrin αvβ3; αvβ3 expression restored by transfection,did react
same,adhesive platelet functions,[1],not affected

# Source: patent publication US7271245B2, “Methods and compositions for inhibition of metastasis” (The Scripps Research Institute, priority 2004, dated 2007)
